This note sets out measurements from US20150290319A1 (EMERGENT BIOSOLUTIONS CANADA, published 2015).

Assay [1] concerns the target T1, Clostridium difficile toxin B (whole toxin B) (Clostridium difficile).
T1 construct: also called TcdB; tcdB
Briefly: biolayer interferometry (Octet QKe); biotinylated antibody on streptavidin sensor, toxin B 50-0.78 nM. (In general: In BLI a coated tip is dipped into the sample, and binding shifts an interference pattern.)

The target in assay [2] is T2, recombinant toxin B fragment 1 (Clostridium difficile, UniProt P18177 1-546). Kind of assay: ELISA, coated antigen, antibody at 0.5 ug/ml, OD405 at 15 min.
Assay [3] addresses T1, Clostridium difficile toxin B (whole …). Kind of assay: cell-based or functional assay.
Assay [4] shares this target. Kind of assay: BLI (Octet QKe), mAb on SA sensor, toxin B analyte, model 1:1.
The target is the same in assay [5]. Kind of assay: BLI (Octet QKe), mAb on SA sensor, toxin B analyte, model 1:1; head prints KD (nM) but Kdis/Kon gives this number in M.
Assay [6] shares this target. Kind of assay: BLI (Octet QKe), mAb on AHC sensor, toxin B analyte, model 2:1; head prints KD (nM) but Kdis/Kon gives this number in M.
The target is the same in assay [7]. Briefly: BLI (Octet QKe), mAb from CHOK1SV, toxin B; column kdis2 (1/s).
The target is the same in assay [8]. Kind of assay: BLI (Octet QKe), mAb on SA sensor, toxin B analyte, model 2:1.
Assay [9] shares this target. Briefly: BLI (Octet QKe), mAb on AHC sensor, toxin B analyte, model 2:1.
For assay [10] the target is unchanged. Kind of assay: BLI (Octet QKe), mAb on SA sensor, toxin B analyte, model 2:1, third of three rows.
For assay [11], the target named is T3, Clostridium difficile toxin A (whole toxin A) (Clostridium difficile, UniProt P16154 1-2710).
T3 construct: mature; also called TcdA
Kind of assay: ELISA on coated whole toxin A (FIG. 1). On the technique in general: In an ELISA, binding on a coated surface is turned into a signal by an enzyme label.

The target in assay [12] is T1, Clostridium difficile toxin B (whole …). Briefly: BLI (Octet QKe), mAb on SA sensor, toxin B analyte, model 2:1, first of three rows.
In a further assay the target is T4, bovine serum albumin (bovine, UniProt P02769 25-607).
T4 construct: also called BSA; commercial BSA
Briefly: Western blot (FIGS. 4-6). On the technique in general: In western blotting, separated proteins are transferred to a membrane and probed.

Assay [13] concerns the target T5, recombinant toxin B fragment 4 (Clostridium difficile, UniProt P18177 1777-2366). Kind of assay: Western blot, 2 ug protein per lane, mAb at 2 ug/ml.
In assay [14] the target is T2, recombinant toxin B fragment 1. Kind of assay: Western blot, 5 ug protein per lane, mAb at 5 ug/ml.
For assay [15], the target named is T1, Clostridium difficile toxin B (whole …). Briefly: cell-based or functional assay. The source holds these as a separate data set.
Assay [16] addresses T5, recombinant toxin B fragment 4. Kind of assay: ELISA, coated antigen, mAb 0.1-1 µg/ml (FIG. 1).
For assay [17], the target named is T2, recombinant toxin B fragment 1. Kind of assay: Western blot, 2 ug protein per lane, mAb at 2 ug/ml.
Assay [18] shares this target. Described as above. This is another data set of the same source.
Assay [19] deals with T5, recombinant toxin B fragment 4. Briefly: ELISA, coated antigen, antibody at 0.5 ug/ml, OD405 at 15 min.

T5 sequence (P18177 1777-2366 limits assumed): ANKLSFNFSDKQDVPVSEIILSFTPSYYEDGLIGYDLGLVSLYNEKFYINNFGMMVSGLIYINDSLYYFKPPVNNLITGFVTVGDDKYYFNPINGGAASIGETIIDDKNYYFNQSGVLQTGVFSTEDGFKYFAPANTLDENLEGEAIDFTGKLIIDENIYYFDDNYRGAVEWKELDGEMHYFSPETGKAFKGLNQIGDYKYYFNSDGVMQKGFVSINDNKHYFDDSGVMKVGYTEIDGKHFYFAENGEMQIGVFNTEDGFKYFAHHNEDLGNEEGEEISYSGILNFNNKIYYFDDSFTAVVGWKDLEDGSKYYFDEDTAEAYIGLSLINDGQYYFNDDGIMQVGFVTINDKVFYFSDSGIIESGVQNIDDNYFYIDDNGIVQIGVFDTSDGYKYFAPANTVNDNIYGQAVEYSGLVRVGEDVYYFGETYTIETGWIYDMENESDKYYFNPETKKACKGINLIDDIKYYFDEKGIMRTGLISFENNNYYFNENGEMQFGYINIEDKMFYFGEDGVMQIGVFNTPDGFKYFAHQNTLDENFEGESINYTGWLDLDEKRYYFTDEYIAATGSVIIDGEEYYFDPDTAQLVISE
T3 sequence (P16154 whole entry): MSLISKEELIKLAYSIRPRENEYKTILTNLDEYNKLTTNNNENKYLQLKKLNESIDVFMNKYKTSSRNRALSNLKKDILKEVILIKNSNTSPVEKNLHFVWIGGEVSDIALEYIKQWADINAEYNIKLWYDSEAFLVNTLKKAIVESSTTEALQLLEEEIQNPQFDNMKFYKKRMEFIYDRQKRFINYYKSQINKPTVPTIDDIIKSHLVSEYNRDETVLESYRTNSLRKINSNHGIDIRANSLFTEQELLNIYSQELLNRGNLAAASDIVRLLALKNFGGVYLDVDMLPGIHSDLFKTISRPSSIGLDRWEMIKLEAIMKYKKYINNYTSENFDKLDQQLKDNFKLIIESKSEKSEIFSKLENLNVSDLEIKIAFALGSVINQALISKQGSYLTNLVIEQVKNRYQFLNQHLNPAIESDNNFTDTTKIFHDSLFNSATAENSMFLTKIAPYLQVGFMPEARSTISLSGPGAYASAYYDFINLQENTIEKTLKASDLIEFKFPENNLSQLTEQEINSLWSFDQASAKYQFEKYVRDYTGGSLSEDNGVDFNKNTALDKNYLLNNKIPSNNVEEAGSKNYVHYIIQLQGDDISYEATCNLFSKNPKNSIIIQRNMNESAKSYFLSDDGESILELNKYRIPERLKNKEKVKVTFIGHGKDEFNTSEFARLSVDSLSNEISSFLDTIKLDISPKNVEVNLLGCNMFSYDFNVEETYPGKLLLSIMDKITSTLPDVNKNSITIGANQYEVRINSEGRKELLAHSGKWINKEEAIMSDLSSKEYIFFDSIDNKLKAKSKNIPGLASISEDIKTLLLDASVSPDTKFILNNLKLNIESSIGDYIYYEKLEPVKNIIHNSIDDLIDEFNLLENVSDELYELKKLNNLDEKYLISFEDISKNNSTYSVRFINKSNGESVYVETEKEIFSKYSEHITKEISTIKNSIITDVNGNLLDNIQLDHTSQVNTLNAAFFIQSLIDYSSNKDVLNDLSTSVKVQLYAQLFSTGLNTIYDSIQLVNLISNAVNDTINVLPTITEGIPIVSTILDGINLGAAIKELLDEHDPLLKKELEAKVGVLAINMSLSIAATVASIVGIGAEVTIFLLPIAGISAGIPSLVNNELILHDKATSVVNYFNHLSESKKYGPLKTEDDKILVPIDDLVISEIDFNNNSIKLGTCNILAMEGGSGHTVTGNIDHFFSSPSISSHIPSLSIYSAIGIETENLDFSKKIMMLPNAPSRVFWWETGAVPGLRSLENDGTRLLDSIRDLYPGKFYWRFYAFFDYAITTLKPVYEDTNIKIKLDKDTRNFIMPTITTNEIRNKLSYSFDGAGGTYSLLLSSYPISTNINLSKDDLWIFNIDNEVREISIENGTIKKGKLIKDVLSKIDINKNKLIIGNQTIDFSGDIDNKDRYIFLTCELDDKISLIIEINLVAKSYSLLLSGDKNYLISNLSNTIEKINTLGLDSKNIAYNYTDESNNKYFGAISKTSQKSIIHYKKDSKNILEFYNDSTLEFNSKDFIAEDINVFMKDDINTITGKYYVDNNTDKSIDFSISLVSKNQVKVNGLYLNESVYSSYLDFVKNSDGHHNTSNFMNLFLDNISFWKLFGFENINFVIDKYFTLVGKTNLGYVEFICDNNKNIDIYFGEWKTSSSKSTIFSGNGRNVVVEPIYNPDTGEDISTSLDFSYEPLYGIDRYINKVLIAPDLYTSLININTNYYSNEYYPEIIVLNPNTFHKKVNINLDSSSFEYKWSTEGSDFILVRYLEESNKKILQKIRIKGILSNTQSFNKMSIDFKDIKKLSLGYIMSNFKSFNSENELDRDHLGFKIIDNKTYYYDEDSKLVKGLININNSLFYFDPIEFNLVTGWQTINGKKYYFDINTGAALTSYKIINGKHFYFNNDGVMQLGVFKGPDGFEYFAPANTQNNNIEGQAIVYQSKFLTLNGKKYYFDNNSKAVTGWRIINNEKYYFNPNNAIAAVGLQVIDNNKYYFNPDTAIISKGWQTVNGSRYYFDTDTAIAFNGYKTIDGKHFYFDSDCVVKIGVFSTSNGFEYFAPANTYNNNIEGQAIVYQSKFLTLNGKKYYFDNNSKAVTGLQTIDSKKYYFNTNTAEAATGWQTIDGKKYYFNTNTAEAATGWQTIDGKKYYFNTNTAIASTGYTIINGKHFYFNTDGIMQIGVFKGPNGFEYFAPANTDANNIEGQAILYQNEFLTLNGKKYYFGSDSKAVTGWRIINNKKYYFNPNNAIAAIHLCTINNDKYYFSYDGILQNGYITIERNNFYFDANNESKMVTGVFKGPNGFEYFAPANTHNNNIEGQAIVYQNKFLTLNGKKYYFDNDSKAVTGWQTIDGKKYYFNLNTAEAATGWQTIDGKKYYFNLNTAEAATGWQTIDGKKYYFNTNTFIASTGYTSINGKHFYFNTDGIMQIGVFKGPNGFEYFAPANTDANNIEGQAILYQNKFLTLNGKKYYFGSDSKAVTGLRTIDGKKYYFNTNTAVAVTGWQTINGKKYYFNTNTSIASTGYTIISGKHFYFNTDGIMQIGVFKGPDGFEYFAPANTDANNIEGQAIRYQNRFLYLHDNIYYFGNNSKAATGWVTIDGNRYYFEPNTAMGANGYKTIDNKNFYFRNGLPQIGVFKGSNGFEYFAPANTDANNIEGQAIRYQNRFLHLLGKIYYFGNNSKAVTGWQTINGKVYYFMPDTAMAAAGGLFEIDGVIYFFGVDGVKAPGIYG
T4 sequence (P02769 25-607 limits assumed): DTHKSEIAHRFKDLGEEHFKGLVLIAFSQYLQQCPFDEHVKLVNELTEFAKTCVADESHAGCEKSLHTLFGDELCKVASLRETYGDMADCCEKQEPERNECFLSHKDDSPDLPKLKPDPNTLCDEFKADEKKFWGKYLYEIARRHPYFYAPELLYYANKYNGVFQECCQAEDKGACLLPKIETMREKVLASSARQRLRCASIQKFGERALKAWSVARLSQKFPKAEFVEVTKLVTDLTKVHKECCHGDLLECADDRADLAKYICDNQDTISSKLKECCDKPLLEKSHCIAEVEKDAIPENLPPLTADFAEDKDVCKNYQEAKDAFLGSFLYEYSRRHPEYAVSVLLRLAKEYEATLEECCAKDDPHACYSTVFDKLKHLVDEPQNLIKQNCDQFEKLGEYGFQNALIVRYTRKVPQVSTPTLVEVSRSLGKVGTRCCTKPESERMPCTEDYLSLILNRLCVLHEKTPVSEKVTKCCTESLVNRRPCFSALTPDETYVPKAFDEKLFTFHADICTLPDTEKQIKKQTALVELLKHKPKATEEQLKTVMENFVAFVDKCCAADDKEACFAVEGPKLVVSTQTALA
T2 sequence (P18177 1-546 limits assumed): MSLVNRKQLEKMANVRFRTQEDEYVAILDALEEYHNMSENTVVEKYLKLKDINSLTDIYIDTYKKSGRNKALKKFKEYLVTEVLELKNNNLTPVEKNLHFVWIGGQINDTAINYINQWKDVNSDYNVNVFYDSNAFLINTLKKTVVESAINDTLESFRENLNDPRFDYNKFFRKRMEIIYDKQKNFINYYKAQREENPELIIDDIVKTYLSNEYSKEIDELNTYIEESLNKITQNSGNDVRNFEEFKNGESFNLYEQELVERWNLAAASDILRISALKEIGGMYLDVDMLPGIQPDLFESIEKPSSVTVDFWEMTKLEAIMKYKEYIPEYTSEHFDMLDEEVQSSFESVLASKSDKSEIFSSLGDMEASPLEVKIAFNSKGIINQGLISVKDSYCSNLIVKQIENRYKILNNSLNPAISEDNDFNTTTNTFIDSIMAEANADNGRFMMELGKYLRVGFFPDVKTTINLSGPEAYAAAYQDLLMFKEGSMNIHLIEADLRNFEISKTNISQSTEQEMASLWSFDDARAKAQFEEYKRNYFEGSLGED

B1: CAN33G1 (antibody, V domains shown)
VH: EVQLQQSGPDLVKPGASVKISCKASGYSFTGYYMHWVKQSHGKSLEWIGRVNPYNGDTNYNQNFKDKAILTVDKSASTAYMEFRSLTSEDSAVYYCTRSNWENYFDYWGQGSTLTVSS
VL: DIQLTQSSSSFSVSLGDRVTITCKASEDIYNRLAWYQQRPGNAPRLLISGATSLETGIPSRFSGSGSGKEYTLSIASLQTEDFVTYYCQQYWNIPTFGGGTRLEIK
notes: also called murine CAN33G1; CAN33 mAb
Consider B1, for which, in assay [1], binding was characterised by a dissociation constant (Kd) of 10.9 nM; the koff (usually a measure of how fast the partners let go of each other) was determined as 0.000591 s⁻¹; the kon – broadly, a measure of how fast the partners come together – is 54400 M⁻¹ s⁻¹. For the same molecule, the binding result in [2] is given as “no binding (tested: 0.5 ug/ml)”.

B2: rehuCAN46G19 (antibody, V domains shown)
VH: EVQLVQSGAEVVKPGESVKISCKASGYSFTGYYIHWVKQTPGQSLEWVGRIFPYNGAASYNQNFKGKATLTVDKSTTTAYMELSSLRSEDSAVYFCARWLRVYFDYWGQGTTLTVSS
VL: ENVLTQSPSSMSASVGDRVTMTCSASSSVTYMHWYQQKPGKSPKLWIYETSKLASGVPSRFSGSGSGNDYSLTISSMQPEDVATYYCFQGSGYPFTFGQGTKLEIK
Turning to B2, in [3], the “antibody concentration giving 100% neutralization of toxin B on CT-26 cells, mAb from CHO (FIG. 25)” value is approximately 0.3 µg/mL. In assay [4], this molecule displayed an off-rate constant (koff) of 0.00021 s⁻¹ and a kon of 1.36e+06 M⁻¹ s⁻¹. The Kd (in general, the constant that tells how readily two partners part at equilibrium) in [5] is 0.154 nM.

B3: huCAN46G19 (antibody, V domains shown)
VH: EVQLVQSGAEVKKPGESVKVSCKASGYSFTGYYIHWVKQAPGQGLEWVGRIFPYNGAASYNQNFKGKATLTVDKSSTTAYMELSSLRSEDTAVYFCARWLRVYFDYWGQGTTVTVSS
VL: ENVLTQSPSSLSASVGDRVTITCSASSSVTYMHWYQQKPGKAPKLWIYETSKLASGVPGRFSGSGSGNSYTFTISSLQPEDIATYYCFQGSGYPFTFGQGTKVEIK
notes: also called HuCAN46G19-3-2
Turning to B3, the Kd in assay [6] turned out to be 0.178 nM.

B4: rehuCAN46G24 (antibody, V domains shown)
VH: EVQLVQSGAEVVKPGESVKISCKASGYSFTGYYIHWVKQTPGQSLEWVGRIFPYNGAASYNQNFKGKATLTVDKSTSTAYMELSSLRSEDSAVYFCARWLRVYFDYWGQGTTLTVSS
VL: EIVLTQSPSSMSTSVGDRVTMSCSASSSVTYMHWYQQKPGKSPKLWIYETSKLASGVPSRFSGSGSGNDYSLTISSMQPEDVATYYCFQGSGYPFTFGQGTKLEIK
For B4, the “antibody concentration giving 100% neutralization of toxin B on CT-26 cells, mAb from CHO (FIG. 25)” value in [3] was approximately 0.3 µg/mL. In assay [7], this molecule gave a koff of 1.2e-05 s⁻¹.

B5: huCAN46G4 (antibody, V domains shown)
VH: EVQLLQSGAEVKKPGSSVKISCKASDYSFTGYYMHWVKQAPGQGLEWIGRIFPYNGAASYNQNFKDKATLTVDKSSSTAYMELHSLRSEDTAVYYCTRWLRVYFDYWGQGTLVTVSS
VL: EKVLTQSPATLSLSPGERATMTCSASSSVSYMHWYQQKPGTSPKLWIYETSKLAFGVPARFSGSGSGNSYSLTISSLEPEDFAVYYCFQGSGYPFTFGQGTRLEIK
In the case of B5, in [8], the off-rate constant (koff) was 0.000928 s⁻¹ and the kon came to 590000 M⁻¹ s⁻¹. In assay [9], this molecule came in with a koff of 0.000754 s⁻¹ and a kon of 2.12e+06 M⁻¹ s⁻¹.

B6: rehuCAN46G4 (antibody, V domains shown)
VH: EVQLLQSGAEVVKPGSSVKISCKASGYSFTGYYMHWVKQAPGQGLEWIGRIFPYNGAASYNQNFKDKATLTADKSTNTAYMELSSLRSEDSAVYYCTRWLRVYFDYWGQGTLVTVSS
VL: EKVLTQSPATLSASPGERVTMSCSASSSVSYMHWYQQKPGQSPKLWIYETSKLAFGVPARFSGSGSGTDYSLTISSMEPEDFATYYCFQGSGYPFTFGQGTRLEIK
Consider B6, for which, in [4], the koff amounted to 0.000235 s⁻¹ and the kon was 590000 M⁻¹ s⁻¹. In assay [5], binding was put at a Kd of 0.399 nM.

B7: CAN46G13a (antibody, V domains shown)
VH: DVQLQESGPGLVKPSQSLSLTCTVTGYSITSDSAWNWIRQFPGNNLEWMGYISYSGSTSYNPSLKSRISITRDTSKNQFFLQLNSVTTEDTATYYCARRSRVSFYFDYWGQGTTLTVSS
VL: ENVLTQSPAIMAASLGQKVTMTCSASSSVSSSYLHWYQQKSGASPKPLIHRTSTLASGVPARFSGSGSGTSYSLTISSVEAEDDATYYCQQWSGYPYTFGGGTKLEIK
notes: also called CAN46G13-1-8; murine CAN46G13a
As to B7, the koff was determined as 0.00598 s⁻¹ in [10], 0.00357 s⁻¹ in [12] and 0.00693 s⁻¹ in assay [1]. For the same molecule, the kon in assay [10] is 73700 M⁻¹ s⁻¹; in [12], 678000 M⁻¹ s⁻¹; in assay [1], 808000 M⁻¹ s⁻¹. Moreover, the binding result is on record as “no binding (tested: 0.1 µg/ml to 1 µg/ml)” in assay [11], “no binding (tested: 2 µg/ml to 5 µg/ml)” in the assay with bovine serum albumin and “no binding (tested: 2 ug/ml)” in assay [13]. Besides, binding in assay [1] was put at a Kd of 8.57 nM.

B8: CAN46G24 (antibody, V domains shown)
VH: EVQLLQSGPELVKPGTSVKISCKASGYSFTGYYIHWVKQTHVKSLEWVGRIFPYNGAASYNQNFKGKATLTVDKSSSTAYMELHSLTSEDSAVYFCARWLRVYFDYWGQGTTLTVSS
VL: EIVLTQSPAIMSTSPGEKVTMSCSASSSVTYMHWYQQKSITSPKLWIYETSKLASGVPGRFSGSGSGNSYSLTISSMEAEDVATYYCFQGSGYPFTFGSGTKLEIK
notes: also called CAN46G24-2-3; murine CAN46G24
In the case of B8, the binding result in assay [14] was “no binding (tested: 5 ug/ml)”; in assay [11], “no binding (tested: 0.1 µg/ml to 1 µg/ml)”; in [16] it was “binds”; with bovine serum albumin, “no binding (tested: 2 µg/ml to 5 µg/ml)”. Also, the “Mean EC50, neutralization of TcdB on HT-29 cells (xCELLigence)” value (“Mean EC50, neutralization of TcdB” below) in assay [15] turned out to be 44.2 µg/mL. Moreover, the Kd in [1] worked out at 1.89 nM. This molecule gave a koff in assay [1] of 0.00028 s⁻¹. This molecule had a kon in assay [1] of 149000 M⁻¹ s⁻¹.

B9: CAN46G4 (antibody, V domains shown)
VH: EVQLLQSGPELVKPGASVKISCKASDYSFTGYYMHWVKQSHVKSLEWIGRIFPYNGAASYNQNFKDKATLTVDKSSSTAYMELHSLTSEDSAVYYCTRWLRVYFDYWGQGTTLTVSS
VL: EKVLTQSPAIMSASPGEEVTMTCSASSSVSYMHWYQQKSSTSPKLWIYETSKLAFGVPGRFSGSGSGNSYSLTISSMEAEDVATYYCFQGSGYPFTFGSGTKLEVK
notes: also called CAN46G4-1-2; murine CAN46G4
Regarding B9, the binding result in [11] is recorded as “no binding (tested: 0.1 µg/ml to 1 µg/ml)”; in assay [16] it was “binds”; in the assay with bovine serum albumin, “no binding (tested: 2 µg/ml to 5 µg/ml)”; in [17] it was “no binding (tested: 2 ug/ml)”. Besides, in assay [15], the “Mean EC50, neutralization of TcdB” value came to 142 µg/mL. Besides, binding in [1] was put at a Kd of 1.41 nM. This molecule also returned a koff in assay [1] of 0.000101 s⁻¹. In assay [1], this molecule yielded an on-rate constant (kon) of 71800 M⁻¹ s⁻¹.

B10: CAN46G13 (antibody, V domains shown)
VH: EVQLLQSGPELVKPGTSVKISCKASGYSFTGYYIHWVKQTHVKSLEWVGRIFPYNGAASYNQNFKGKATLTVDKSSSTAYMELHSLTSEDSAVYFCARWLRVYFDYWGQGTTLTVSS
VL: EIVLTQSPAIMSTSPGEKVTMSCSASSSVTYMHWYQQKSITSPKLWIYETSKLASGVPGRFSGSGSGNSYSLTISSMEAEDVATYYCFQGSGYPFTFGSGTKLEIK
notes: also called CAN46G13-1-5; murine CAN46G13
Consider B10, for which the binding result in assay [11] is “no binding (tested: 0.1 µg/ml to 1 µg/ml)”; with bovine serum albumin, “no binding (tested: 2 µg/ml to 5 µg/ml)”; in [18] it was “no binding (tested: 2 ug/ml)”; in [19], “binds”. The “Mean EC50, neutralization of TcdB” value in assay [15] was found to be 136 µg/mL. In assay [1], this molecule came in with a Kd of 1.17 nM. For the same molecule, in assay [1], the koff was 0.000149 s⁻¹. The kon in [1] turned out to be 128000 M⁻¹ s⁻¹.

B11: CAN46G19 (antibody, V domains shown)
VH: EVQLLQSGPELVKPGTSVKISCKASGYSFTGYYIHWVKQTHVKSLEWVGRIFPYNGAASYNQNFKGKATLTVDKSSTTAYMELHSLTSEDSAVYFCARWLRVYFDYWGQGTTLTVSS
VL: ENVLTQSPTIMSASPGEEVTMTCSASSSVTYMHWYQQKSITSPKLWIYETSKLASGVPGRFSGSGSGNSYSLTISSMEAEDVATYYCFQGSGYPFTFGSGTKLEIK
notes: also called CAN46G19-3-2; murine CAN46G19
Consider B11, for which the binding result is given as “no binding (tested: 0.1 µg/ml to 1 µg/ml)” in assay [11], “binds” in [16], “no binding (tested: 2 µg/ml to 5 µg/ml)” in the assay with bovine serum albumin and “no binding (tested: 2 ug/ml)” in assay [17]. Besides, the “Mean EC50, neutralization of TcdB” value in [15] turned out to be 142 µg/mL. The molecule further had a Kd in assay [1] of 1.27 nM. Also, the koff in assay [1] amounted to 0.000145 s⁻¹. Moreover, in assay [1], the kon is 114000 M⁻¹ s⁻¹.
